Here are results for one molecule from US20250326864A1 (PARADOX IMMUNOTHERAPEUTICS, published 2025).

For assay [1], the target named is T1, misfolded H3 λ light chain (human).
T1 construct: also called H3 (misfolded)
The experiment in a line: bio-layer interferometry. On the procedure: (§1) FIGS. 6A-6F are bio-layer interferometry sensorgrams of binding interactions between clone 1 (muLX-97) to misfolded (FIGS. 6A, 6B, 6C) and native (FIGS. 6D, 6E, 6F) conformations of Wil (FIGS. 6A, 6D), H3 (FIGS. 6B, 6E), and FOR102 (FIGS. 6C, 6F) lambda light chain variants. Binding of muLX-97 with its misfolded Wil at a range of target concentrations was measured by changes in wavelength (nm) over 720 seconds (120 s association, 600 s dissociation). Association and dissociation curves were fit using Octet Systems Software to determine KD.
(§2) The binding affinity of muLX-97 to multiple λ light chain variants in misfolded and native conformations was then measured. In addition to Wil, two light chain variants sequenced from cardiac amyloid deposits in light chain amyloidosis patients were selected. See Oberti L et al. Concurrent structural and biophysical traits link with immunoglobulin light chains amyloid propensity. Sci Rep. 2017 Dec. 1; 7(1):16809 and Baur J et al. Identification of AL proteins from 10λ-AL amyloidosis patients by mass spectrometry extracted from abdominal fat and heart tissue. Amyloid. 2023 March; 30(1) 27-37. […] In native conformations of all variants, only weak binding (limited BLI signal, at very high concentration of 1000 nM) was observed. This limited association may be due to the presence of small amounts of misfolded Wil contaminating the ‘native’ sample.

Assay [2] concerns the target T2, misfolded FOR102 λ light chain (human).
T2 construct: also called FOR102 (misfolded)
As to the kind of experiment: bio-layer interferometry. On the procedure: as §1, §2

Assay [3] has as its target T3, misfolded/unfolded Wil λ light chain (human).
T3 construct: mature; Soluble misfolded form made from native Wil; Biotinylated in the capture ELISA; also called misfolded Wil; Wil (misfolded)
The experiment in a line: bio-layer interferometry. On the procedure: as §1, §2

In assay [4] the target is T3, misfolded/unfolded Wil λ light chain. As to the kind of experiment: microscale thermophoresis, labeled antibody. The protocol: (§3) FIGS. 7A and 7B are line graphs illustrating the results of binding of misfolded (FIG. 7A) or amyloid (FIG. 7B) Wil to muLX-97 measured by MST (microscale thermophoresis).
(§4) Next, the binding affinity of muLX-97 to amyloid forms of λ light chains was determined. A true affinity to aggregates could not be measured using previously described methods where either the antibody or target is immobilized, so microscale thermophoresis (MST) was used. In this method a small spot in a capillary containing fluorescently labeled antibody in the presence or absence of target is irradiated with an infrared laser. The local heating causes migration of protein out of the heated spot and the rate of migration change (due to the antibody binding to a ligand) can be used to measure the affinity. Using the NanoTemper Monolith, binding of muLX-97 to misfolded and amyloid forms of Wil was quantified, with results shown in FIG. 7.

In assay [5] the target is transthyretin (ATTR) amyloid in cardiac tissue (human, UniProt P02766 21-147). The experiment in a line: immunohistochemistry on patient tissue.
The target of assay [6] is T4, islet amyloid polypeptide (IAPP) amyloid in pancreatic tissue (human, UniProt P10997 34-70).
T4 construct: Pathological control tissue in immunohistochemistry; also called IAPP amyloid pancreatic tissue
T4 chain (looked up): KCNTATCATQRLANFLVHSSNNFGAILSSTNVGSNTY
The experiment in a line: immunohistochemistry on patient tissue.

Assay [7] addresses aggregated/amyloid Wil λ light chain (human). The experiment in a line: cell-based or functional assay.
In assay [8] the target is T5, aggregated/amyloid Wil λ light chain (human).
T5 construct: mature; Aggregate of many chains; Conjugated to pHrodo in the phagocytosis assay; also called Wil amyloid; amyloid/aggregated Wil
As to the kind of experiment: microscale thermophoresis, labeled antibody. On the procedure: as §3, §4

Assay [9] deals with T3, misfolded/unfolded Wil λ light chain. As to the kind of experiment: microscale thermophoresis, labeled antibody. On the procedure:
as §3, §4
This is another data set of the same source.

The target is the same in assay [10]. As to the kind of experiment: capture ELISA, antibody captured by anti-mouse Fc, biotinylated Wil in solution. From the text: All the candidate mAbs detected both misfolded/unfolded and amyloid/aggregated Wil. […] It was suspected that the Western blotting and indirect ELISA methods, which immobilizes the ‘native’ Wil protein to a surface, can lead to false-positive binding to the native protein by inducing some degree of misfolding, which would not be detected by the clones that bound weakly (clones 3-5). As such, a capture format ELISA was used to interrogate the binding behavior of clones 1 and 2. In this format, a goat anti-mouse Fc capture antibody was coated into the ELISA wells, and clones 1 or 2 are captured by the antibody with their Fabs aligned to the appropriate orientation. Then, native, or misfolded forms of biotinylated Wil is added to these wells and binding is measured by streptavidin. […] Based on the above data, clone 1 was selected as the lead candidate for subsequent characterization (henceforth referred to as muLX-97).

B1: muLX-97 (clone 1) (antibody, V domains shown)
VH: DVKLVESGGGLVKLGGSLKLSCAASGFTFSSYYMSWVRQTPEKRLELVAAINSNGGNTYYPDTVKGRFTISRDNAKNTLYLQMSSLKSEDTALYYCARLPFDYWGQGTTLTVSS
VL: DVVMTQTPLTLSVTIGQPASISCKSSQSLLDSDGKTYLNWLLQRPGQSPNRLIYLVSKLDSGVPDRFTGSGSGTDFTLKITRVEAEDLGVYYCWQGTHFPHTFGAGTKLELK
modifications: Antibody fluorescently labeled in the MST assay; dye and site not stated.
notes: Murine monoclonal antibody from a hybridoma, purified from mouse ascites fluid; Fluorescently labeled in the MST assay
Consider B1, for which the Kd was 317 nM in assay [1]; 65 nM in assay [2]; 59 nM in [3]; 61.9 nM in assay [4]; 87 nM in assay [8]; 61 nM in [9]. Moreover, the Kd in [10] was 69 nM. Besides, the binding result in assay [5] and in [6] was “no binding” in each case. In addition, the “EC50 of phagocytic uptake of pHrodo-labeled amyloid Wil (% pHrodo-positive cells), J774.1 cells” value in assay [7] is roughly 7 nM. For the same molecule, the “EC50 of phagocytic uptake of pHrodo-labeled amyloid Wil (% pHrodo-positive cells), RAW 264.7 cells” value in [7] is roughly 20 nM.
